B1: Transcription factor 12 (Homo sapiens), Q99081 (parent)
chain: MNPQQQRMAAIGTDKELSDLLDFSAMFSPPVNSGKTRPTTLGSSQFSGSGIDERGGTTSWGTSGQPSPSYDSSRGFTDSPHYSDHLNDSRLGAHEGLSPTPFMNSNLMGKTSERGSFSLYSRDTGLPGCQSSLLRQDLGLGSPAQLSSSGKPGTAYYSFSATSSRRRPLHDSAALDPLQAKKVRKVPPGLPSSVYAPSPNSDDFNRESPSYPSPKPPTSMFASTFFMQDGTHNSSDLWSSSNGMSQPGFGGILGTSTSHMSQSSSYGNLHSHDRLSYPPHSVSPTDINTSLPPMSSFHRGSTSSSPYVAASHTPPINGSDSILGTRGNAAGSSQTGDALGKALASIYSPDHTSSSFPSNPSTPVGSPSPLTGTSQWPRPGGQAPSSPSYENSLHSLQSRMEDRLDRLDDAIHVLRNHAVGPSTSLPAGHSDIHSLLGPSHNAPIGSLNSNYGGSSLVASSRSASMVGTHREDSVSLNGNHSVLSSTVTTSSTDLNHKTQENYRGGLQSQSGTVVTTEIKTENKEKDENLHEPPSSDDMKSDDESSQKDIKVSSRGRTSSTNEDEDLNPEQKIEREKERRMANNARERLRVRDINEAFKELGRMCQLHLKSEKPQTKLLILHQAVAVILSLEQQVRERNLNPKAACLKRREEEKVSAVSAEPPTTLPGTHPGLSETTNPMGHM

Variants of: B1
Conditions: with psa1_human PSMA1, P25786
psa1_human PSMA1, P25786, sequence (P25786 whole entry): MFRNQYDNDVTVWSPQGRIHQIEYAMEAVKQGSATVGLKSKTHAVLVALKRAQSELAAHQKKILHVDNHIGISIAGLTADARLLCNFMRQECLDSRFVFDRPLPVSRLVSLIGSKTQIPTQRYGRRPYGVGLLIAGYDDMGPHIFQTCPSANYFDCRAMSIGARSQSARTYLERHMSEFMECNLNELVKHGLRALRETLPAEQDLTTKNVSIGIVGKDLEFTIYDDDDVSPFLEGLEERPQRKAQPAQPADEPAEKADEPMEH

| effect of a mutation on the interaction | Variant |
| --- | --- |
| with no effect | N479S |
| with no effect | I11M |
| with no effect | A458V |
| with no effect | G300S |
| with no effect | L483R |
| with no effect | D565V |

Variants of: B1
Conditions: with cdn2c_human CDKN2C

| effect of a mutation on the interaction | Variant |
| --- | --- |
| with no effect | N479S |
| with no effect | I11M |
| with no effect | A458V |
| with no effect | G300S |
| with no effect | L483R |
| with no effect | D565V |

Reference: IntAct's records for PubMed 31515488
